Laboratory results reported in IntAct's records for PubMed 22796944.

B1: Cell division control protein 73 (Saccharomyces cerevisiae), Q06697 (parent)
chain: MANSLDRLREHLKNGDKLVLKNNEGQSTDDITKATMVETLSSDGSTQDSFPLNEETEIEIDGSLVQLRIIVHCWMNKDSSAADYLADCQNKQLTNVSFLQRTDLINWLSGNTESSQYLKAPGQKGETSDKVDIENKTLAGELSTVKSTTSASLENDSEVSDPVVVETMKHERILVDHNSALRGAKPINFGYLIKDAELKLVQSIKGSLRGSKLPPGHKGAHGRISKTNGSSGGPRKDPIILIPSAASSILTVANIKQFLLESKYVNPRNLPSVPNGLVNIEKNFERISRPIRFIIVDNTRMFTKPEYWDRVVAIFTTGHTWQFNNYQWNSPQELFQRCKGYYFHFAGDSVPQHVQQWNVEKVELDKNKRFKDVEVVRYFWHSLEKELISRGYR
B2: Cell division control protein 73 (Saccharomyces cerevisiae), Q06697 (parent)
chain: B1 chain
partner: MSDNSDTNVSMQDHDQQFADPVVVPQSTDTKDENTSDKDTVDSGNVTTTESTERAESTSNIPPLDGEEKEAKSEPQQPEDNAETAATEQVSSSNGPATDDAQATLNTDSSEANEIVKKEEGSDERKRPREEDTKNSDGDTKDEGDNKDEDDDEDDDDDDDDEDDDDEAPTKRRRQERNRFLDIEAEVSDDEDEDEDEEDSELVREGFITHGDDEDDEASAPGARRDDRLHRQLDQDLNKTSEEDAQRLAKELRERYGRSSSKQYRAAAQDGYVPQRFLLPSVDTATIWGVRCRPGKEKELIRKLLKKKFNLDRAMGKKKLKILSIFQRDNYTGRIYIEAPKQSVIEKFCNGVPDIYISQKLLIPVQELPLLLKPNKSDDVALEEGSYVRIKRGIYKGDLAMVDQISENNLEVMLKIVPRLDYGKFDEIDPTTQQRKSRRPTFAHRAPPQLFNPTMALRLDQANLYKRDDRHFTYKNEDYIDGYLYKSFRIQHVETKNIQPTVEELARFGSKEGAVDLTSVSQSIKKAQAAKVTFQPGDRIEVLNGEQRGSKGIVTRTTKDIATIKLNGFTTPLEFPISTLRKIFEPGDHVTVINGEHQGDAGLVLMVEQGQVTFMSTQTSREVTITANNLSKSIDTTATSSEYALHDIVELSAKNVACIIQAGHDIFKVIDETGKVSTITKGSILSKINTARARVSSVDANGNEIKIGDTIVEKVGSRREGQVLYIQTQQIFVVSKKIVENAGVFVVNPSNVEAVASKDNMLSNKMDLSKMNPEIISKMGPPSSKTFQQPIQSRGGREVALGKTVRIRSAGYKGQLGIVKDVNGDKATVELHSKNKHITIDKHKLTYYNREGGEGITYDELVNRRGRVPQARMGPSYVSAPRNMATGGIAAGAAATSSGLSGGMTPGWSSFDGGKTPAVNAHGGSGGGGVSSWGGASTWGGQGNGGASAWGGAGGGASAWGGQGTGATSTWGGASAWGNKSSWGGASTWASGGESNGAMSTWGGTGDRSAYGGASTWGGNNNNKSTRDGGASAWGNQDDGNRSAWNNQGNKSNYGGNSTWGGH
B3: Transcription elongation factor SPT5 (Saccharomyces cerevisiae), P27692 (parent)
chain: B2 partner

Variants of: B1
Settings: with rpb1_yeast RPO21, P04050
Sequence of rpb1_yeast RPO21, P04050 (P04050 whole entry): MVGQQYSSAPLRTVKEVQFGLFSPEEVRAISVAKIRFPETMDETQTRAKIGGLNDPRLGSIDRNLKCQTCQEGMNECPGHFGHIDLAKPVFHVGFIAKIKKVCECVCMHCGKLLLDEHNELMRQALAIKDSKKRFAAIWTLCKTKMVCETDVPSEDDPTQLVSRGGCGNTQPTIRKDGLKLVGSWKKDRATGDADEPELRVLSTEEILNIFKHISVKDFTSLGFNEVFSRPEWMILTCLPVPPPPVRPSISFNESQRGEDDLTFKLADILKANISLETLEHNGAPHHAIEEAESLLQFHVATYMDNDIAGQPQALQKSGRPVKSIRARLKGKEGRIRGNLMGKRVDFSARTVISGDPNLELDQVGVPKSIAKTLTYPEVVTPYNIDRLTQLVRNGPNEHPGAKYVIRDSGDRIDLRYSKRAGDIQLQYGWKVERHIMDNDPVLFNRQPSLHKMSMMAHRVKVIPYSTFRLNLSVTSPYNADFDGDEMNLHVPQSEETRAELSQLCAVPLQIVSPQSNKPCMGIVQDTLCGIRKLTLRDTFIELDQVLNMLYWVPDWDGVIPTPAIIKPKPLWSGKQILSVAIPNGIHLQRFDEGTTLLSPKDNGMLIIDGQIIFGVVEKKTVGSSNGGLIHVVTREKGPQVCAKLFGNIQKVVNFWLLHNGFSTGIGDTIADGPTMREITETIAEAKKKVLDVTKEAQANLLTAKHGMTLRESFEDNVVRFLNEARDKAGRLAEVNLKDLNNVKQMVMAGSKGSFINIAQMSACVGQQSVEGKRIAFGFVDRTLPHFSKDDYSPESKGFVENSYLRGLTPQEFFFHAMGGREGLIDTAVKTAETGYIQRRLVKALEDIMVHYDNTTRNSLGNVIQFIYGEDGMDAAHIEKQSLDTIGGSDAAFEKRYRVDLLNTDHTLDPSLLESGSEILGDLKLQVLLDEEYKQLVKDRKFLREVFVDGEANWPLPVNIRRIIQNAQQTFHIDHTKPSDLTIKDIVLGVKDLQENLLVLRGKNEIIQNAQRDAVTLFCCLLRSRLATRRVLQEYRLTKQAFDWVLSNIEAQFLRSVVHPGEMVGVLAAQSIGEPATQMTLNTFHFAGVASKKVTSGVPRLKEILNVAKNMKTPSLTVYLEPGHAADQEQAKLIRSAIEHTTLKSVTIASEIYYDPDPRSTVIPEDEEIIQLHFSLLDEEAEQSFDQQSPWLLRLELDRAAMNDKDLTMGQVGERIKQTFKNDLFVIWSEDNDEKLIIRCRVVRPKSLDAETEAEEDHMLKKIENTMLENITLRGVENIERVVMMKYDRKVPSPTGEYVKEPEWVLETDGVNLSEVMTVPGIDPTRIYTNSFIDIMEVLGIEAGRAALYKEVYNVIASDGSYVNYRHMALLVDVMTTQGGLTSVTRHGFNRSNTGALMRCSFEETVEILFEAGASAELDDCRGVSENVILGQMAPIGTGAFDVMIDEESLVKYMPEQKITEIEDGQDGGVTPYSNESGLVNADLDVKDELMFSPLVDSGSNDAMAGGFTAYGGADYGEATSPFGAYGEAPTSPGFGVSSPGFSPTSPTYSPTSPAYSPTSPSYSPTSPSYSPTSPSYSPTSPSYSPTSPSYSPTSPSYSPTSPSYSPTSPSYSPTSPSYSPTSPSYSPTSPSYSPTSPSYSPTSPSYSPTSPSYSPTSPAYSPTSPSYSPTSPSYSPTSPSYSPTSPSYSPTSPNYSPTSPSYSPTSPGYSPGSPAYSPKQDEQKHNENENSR
MANSLDRLREHLKNGDKLVLKNNEGQSTDDITKATMVETLSSDGSTQDSFPLNEETEIEIDGSLVQLRIIVHCWMNKDSSAADYLADCQNKQLTNVSFLQRTDLINWLSGNTESSQYLKAPGQKGETSDKVDIENKTLAGELSTVKSTTSASLENDSEVSDPVVVETMKHERILVDHNSALRGAKPINFGYLIKDAELKLVQSIKGSLRGSKLPPGHKGAHGRISKTNGSSGGPRKDPIILIPSAASSILTVANIKQFLLESKYVNPRNLPSVPNGLVNIEKNFERISRPIRFIIVDNTRMFTKPEYWDRVVAIFTTGHTWQFNNYQWNSPQELFQRCKGYYFHFAGDSVPQHVQQWNVEKVELDKNKRFKDVEVVRYFAHSLEKELISRGYR [W380A] was tested, and the “effect of a mutation on the interaction” value was “disrupting interaction”.
MANSLDRLREHLKNGDKLVLKNNEGQSTDDITKATMVETLSSDGSTQDSFPLNEETEIEIDGSLVQLRIIVHCWMNKDSSAADYLADCQNKQLTNVSFLQRTDLINWLSGNTESSQYLKAPGQKGETSDKVDIENKTLAGELSTVKSTTSASLENDSEVSDPVVVETMKHERILVDHNSALRGAKPINFGYLIKDAELKLVQSIKGSLRGSKLPPGHKGAHGRISKTNGSSGGPRKDPIILIPSAASSILTVANIKQFLLESKYVNPRNLPSVPNGLVNIEKNFERISRPIRFIIVDNTRMFTKPEYWDRVVAIFTTGHTWQFNNYQWNSPQELFQRCKGYYFHFAGDSVPQHVQQANVEKVELDKNKRFKDVEVVRYFWHSLEKELISRGYR [W357A] was tested, and the “effect of a mutation on the interaction” value was “disrupting interaction”.

Variants of: B2
Settings: with spt5_yeast SPT5, P27692
For MANSLDRLREHLKNGDKLVLKNNEGQSTDDITKATMVETLSSDGSTQDSFPLNEETEIEIDGSLVQLRIIVHCWMNKDSSAADYLADCQNKQLTNVSFLQRTDLINWLSGNTESSQYLKAPGQKGETSDKVDIENKTLAGELSTVKSTTSASLENDSEVSDPVVVETMKHERILVDHNSALRGAKPINFGYLIKDAELKLVQSIKGSLRGSKLPPGHKGAHGRISKTNGSSGGPRKDPIILIPSAASSILTVANIKQFLLESKYVNPRNLPSVPNGLVNIEKNFERISRPIRFIIVDNTRMFTKPEYWDRVVAIFTTGHTWQFNNYQWNSPQELFQRCKGYYFHFAGDSVPQHVQQWNVEKVELDKNKRFKDVEVVRYFAHSLEKELISRGYR [W380A], the “effect of a mutation on the interaction” value was “disrupting interaction”.
With MANSLDRLREHLKNGDKLVLKNNEGQSTDDITKATMVETLSSDGSTQDSFPLNEETEIEIDGSLVQLRIIVHCWMNKDSSAADYLADCQNKQLTNVSFLQRTDLINWLSGNTESSQYLKAPGQKGETSDKVDIENKTLAGELSTVKSTTSASLENDSEVSDPVVVETMKHERILVDHNSALRGAKPINFGYLIKDAELKLVQSIKGSLRGSKLPPGHKGAHGRISKTNGSSGGPRKDPIILIPSAASSILTVANIKQFLLESKYVNPRNLPSVPNGLVNIEKNFERISRPIRFIIVDNTRMFTKPEYWDRVVAIFTTGHTWQFNNYQWNSPQELFQRCKGYYFHFAGDSVPQHVQQANVEKVELDKNKRFKDVEVVRYFWHSLEKELISRGYR [W357A] the “effect of a mutation on the interaction” value was “disrupting interaction”.

Variants of: B3
Settings: with rtf1_yeast RTF1, P53064
Sequence of rtf1_yeast RTF1, P53064 (P53064 whole entry): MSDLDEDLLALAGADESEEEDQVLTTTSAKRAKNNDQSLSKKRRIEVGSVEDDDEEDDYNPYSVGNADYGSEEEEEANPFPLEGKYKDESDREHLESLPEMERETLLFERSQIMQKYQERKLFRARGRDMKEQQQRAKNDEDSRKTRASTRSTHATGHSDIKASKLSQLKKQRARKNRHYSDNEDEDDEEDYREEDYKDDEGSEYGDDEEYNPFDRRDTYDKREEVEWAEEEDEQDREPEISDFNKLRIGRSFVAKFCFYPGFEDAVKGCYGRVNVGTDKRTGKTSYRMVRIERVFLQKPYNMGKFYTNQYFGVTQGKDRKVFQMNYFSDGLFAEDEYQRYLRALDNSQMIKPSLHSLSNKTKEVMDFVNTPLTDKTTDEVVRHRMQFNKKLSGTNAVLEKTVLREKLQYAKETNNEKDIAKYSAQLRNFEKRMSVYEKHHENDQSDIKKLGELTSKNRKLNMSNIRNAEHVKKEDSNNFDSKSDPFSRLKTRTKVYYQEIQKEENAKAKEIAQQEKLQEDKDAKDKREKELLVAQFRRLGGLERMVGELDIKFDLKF
For M1D, the “effect of a mutation on the interaction” value was “decreasing interaction”.
